Target: T1, TBP (TATA-binding protein);Brf1;Bdp1 (yeast?;yeast?;yeast?, UniProt P13393;P29056;P46678 1-240;1-596;1-594, ||)
T1 sequence 1: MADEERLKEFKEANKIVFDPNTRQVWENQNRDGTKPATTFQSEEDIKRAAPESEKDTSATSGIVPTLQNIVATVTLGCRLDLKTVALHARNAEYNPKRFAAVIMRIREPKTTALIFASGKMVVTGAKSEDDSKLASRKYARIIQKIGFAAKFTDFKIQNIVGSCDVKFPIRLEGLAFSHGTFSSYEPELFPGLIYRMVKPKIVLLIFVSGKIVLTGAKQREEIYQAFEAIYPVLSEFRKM
T1 sequence 2: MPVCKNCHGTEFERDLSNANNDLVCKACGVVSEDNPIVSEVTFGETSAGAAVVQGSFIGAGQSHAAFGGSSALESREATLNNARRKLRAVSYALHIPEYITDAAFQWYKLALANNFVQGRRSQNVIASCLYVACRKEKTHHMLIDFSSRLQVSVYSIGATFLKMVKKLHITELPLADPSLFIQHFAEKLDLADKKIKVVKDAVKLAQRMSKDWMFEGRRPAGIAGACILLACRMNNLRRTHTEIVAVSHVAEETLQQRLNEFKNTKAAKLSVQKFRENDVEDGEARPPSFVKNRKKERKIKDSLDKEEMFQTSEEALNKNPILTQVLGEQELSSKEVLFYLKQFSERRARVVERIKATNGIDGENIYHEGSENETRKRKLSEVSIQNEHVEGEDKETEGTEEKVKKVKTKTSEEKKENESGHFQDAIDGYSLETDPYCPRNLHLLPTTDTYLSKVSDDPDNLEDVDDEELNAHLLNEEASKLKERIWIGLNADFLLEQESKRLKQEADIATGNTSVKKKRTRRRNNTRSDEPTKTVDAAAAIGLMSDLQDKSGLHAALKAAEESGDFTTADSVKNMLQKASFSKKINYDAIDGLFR
T1 sequence 3: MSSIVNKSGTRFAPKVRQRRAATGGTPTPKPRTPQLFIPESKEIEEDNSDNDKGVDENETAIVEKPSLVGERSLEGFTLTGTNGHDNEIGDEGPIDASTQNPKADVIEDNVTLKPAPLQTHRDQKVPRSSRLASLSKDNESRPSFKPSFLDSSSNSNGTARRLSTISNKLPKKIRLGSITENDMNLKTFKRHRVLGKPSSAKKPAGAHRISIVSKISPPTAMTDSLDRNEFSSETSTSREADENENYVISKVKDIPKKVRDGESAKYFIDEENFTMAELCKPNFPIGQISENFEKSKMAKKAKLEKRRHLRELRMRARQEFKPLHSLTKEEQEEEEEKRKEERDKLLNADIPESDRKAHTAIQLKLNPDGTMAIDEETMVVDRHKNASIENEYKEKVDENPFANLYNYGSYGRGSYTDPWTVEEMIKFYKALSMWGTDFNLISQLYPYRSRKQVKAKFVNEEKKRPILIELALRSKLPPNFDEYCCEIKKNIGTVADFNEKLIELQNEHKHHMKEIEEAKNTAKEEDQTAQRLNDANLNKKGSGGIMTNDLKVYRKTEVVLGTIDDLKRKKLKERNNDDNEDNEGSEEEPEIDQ
Experiment: EMSA

B1: U6 (SNR6) TATA-DNA, 30 bp (dsDNA)
DNA 1: TTTTCGGCTACTATAAATAAATGTTTTTTT
DNA 2: AAAAAAACATTTATTTATAGTAGCCGAAAA
binding result: binds

Reference: paper PMC549393
